According to US20230272067A1 (HUAHUI HEALTH, published 2023):

Legend:
[1] = target: T1, extracellular domain (ECD) of mouse TIGIT (mouse, UniProt P86176 29-148, biotinylated (site not stated)); assay: SPR (Biacore T200), multi-cycle kinetics
T1 construct: extracellular domain; Used captured on streptavidin in ELISA and as analyte in SPR (extracellular domain); also called mTIGIT-ECD; mTIGIT-ECD-Biotin; not shown: expressed as a biotinylated recombinant fusion protein
T1 sequence (looked up): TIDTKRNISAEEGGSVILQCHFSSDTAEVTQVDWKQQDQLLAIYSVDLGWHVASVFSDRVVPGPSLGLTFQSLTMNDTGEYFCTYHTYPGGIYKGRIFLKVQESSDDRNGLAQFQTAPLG

[2] = target: T2, extracellular domain (ECD) of human TIGIT (human, UniProt Q495A1 22-141, biotinylated (site not stated)); assay: SPR (Biacore T200), multi-cycle kinetics
T2 construct: extracellular domain; Used captured on streptavidin in ELISA and as analyte in SPR (extracellular domain); also called hTIGIT-ECD; hTIGIT-ECD-Biotin; not shown: expressed as a biotinylated recombinant fusion protein
T2 sequence (looked up): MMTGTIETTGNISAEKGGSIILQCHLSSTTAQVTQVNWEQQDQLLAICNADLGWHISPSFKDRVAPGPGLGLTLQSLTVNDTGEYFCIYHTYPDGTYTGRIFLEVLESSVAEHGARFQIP

[3] = target: T3, full-length human TIGIT expressed on cells (human, UniProt Q495A1 22-244); assay: FACS on CHO cells transiently expressing full-length hTIGIT, hIgG1 format
T3 construct: whole, on cells; also called CHO-hTIGIT; YTS-hTIGIT
T3 sequence (looked up): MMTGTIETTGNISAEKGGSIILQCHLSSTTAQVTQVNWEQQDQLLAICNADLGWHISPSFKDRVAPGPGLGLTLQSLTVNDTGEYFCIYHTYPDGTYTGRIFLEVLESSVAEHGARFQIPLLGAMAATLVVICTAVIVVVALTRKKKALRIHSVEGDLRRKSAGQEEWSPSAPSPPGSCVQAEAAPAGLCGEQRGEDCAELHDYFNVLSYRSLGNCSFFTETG
Experimental: (§1) For epitope mapping, chimeras of human TIGIT IgV domain and N-terminal IgV domain D1 of hCD155 were constructed by replacing residues in the extracellular regions of hTIGIT with the corresponding residues from hCD155 D 1. These chimera and variants were expressed by transient transfection of CHO or 293T cells, their cell surface expression levels were assessed by using a mAb GC33 recognizing the N-terminal tag fused to each of the chimera and variant or hCD155-hFc (4). The binding of testing Abs in human IgG1 (hIgG1) format or hCD155-hFc to these transfectants were detected by using goat anti-human IgG-FITC antibody (Thermo Fisher Scientific). The cells were then analyzed with FACS machine (BD Accuri™ C6).
By transfecting CHO cells with these hTIGIT/hCD155 chimeras or hTIGIT variants, and by subsequently analyzing T4, CS19ME3-23, and CS19ME3-30-N Abs binding to these CHO transfectant cells by FACS, it was identified that the FG Loop in the extracellular IgV domain of hTIGIT is critical for these Abs′ binding (FIG. 12B). […] Thus, by binding to the FG Loop, these three Abs block the binding of TIGIT to its ligand CD155. Due to the high amino acid sequence homology in this loop between hTIGIT and mTIGIT, these three Abs are able to cross-react with both of them.

[4] = target: T1, extracellular domain (ECD) of mouse …; assay: SPR (Biacore T200), multi-cycle kinetics, FIG. 11 (hTIGIT or mTIGIT)
[5] = target: T2, extracellular domain (ECD) of human …; assay: as above
[6] = target: T4, hTIGIT variant S80A (full length, on 293T cells) (human, UniProt Q495A1 22-244); assay: FACS on 293T cells transiently expressing the variant
T4 construct: whole, on cells; also called 580A [sic]
T4 sequence (looked up): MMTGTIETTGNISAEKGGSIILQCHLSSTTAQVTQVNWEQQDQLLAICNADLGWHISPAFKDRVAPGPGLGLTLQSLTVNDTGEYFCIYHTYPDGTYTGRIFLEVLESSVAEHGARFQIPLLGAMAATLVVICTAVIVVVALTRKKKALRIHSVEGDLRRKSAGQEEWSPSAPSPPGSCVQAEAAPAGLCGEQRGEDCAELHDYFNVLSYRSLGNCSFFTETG
Experimental: as §1
(§2) To investigate the role of these residues in the binding of anti-TIGIT antibodies of the present disclosure to hTIGIT, three hTIGIT variants each having a single point mutation selected from S78A, […], and K82A were generated. By transfecting 293T cells with these hTIGIT variants and by subsequently analyzing CS19ME3-30-N Abs binding to these 293T transfectant cells by FACS, it was identified that none of the three residues in the extracellular IgV domain of hTIGIT is critical for these Abs′ binding (FIG. 12C).

[7] = target: T5, hTIGIT variant K82A (full length, on 293T cells) (human, UniProt Q495A1 22-244); assay: as above
T5 construct: whole, on cells
T5 sequence (looked up): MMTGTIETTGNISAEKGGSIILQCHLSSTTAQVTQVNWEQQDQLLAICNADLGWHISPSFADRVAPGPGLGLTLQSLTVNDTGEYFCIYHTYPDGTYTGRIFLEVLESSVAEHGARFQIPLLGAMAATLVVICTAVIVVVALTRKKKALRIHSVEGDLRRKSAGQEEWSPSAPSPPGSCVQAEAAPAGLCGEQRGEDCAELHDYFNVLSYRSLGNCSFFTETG
Experimental: as §1, §2

[8] = target: T6, hTIGIT variant S78A (full length, on 293T cells) (human, UniProt Q495A1 22-244); assay: as above
T6 construct: whole, on cells
T6 sequence (looked up): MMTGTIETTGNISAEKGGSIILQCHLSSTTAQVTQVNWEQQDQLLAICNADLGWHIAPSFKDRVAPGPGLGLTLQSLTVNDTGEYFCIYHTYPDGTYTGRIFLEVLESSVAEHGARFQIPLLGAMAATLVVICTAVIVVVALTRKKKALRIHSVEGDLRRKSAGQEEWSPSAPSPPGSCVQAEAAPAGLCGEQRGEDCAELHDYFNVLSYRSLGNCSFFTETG
Experimental: as §1, §2

Measured: binding result

B1: T4M (antibody, V domains shown)
VH: QVQLQQWGAGLLKPSETLSLTCAVYGGSFNDYYWTWIRQAPGKGLEWIGEITHSGSADYNPSLKSRVTISVDTSKNQFSLKLRSVTAADTAVYYCARGLKLFRWKKTTVTTFPPYYYGMDVWGQGTTVTVSS
VL: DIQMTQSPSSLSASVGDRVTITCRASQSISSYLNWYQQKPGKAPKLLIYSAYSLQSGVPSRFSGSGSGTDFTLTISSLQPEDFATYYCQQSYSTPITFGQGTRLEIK
notes: T4 Vk with S50 and Y52 incorporated; IgG format captured by anti-hFc in SPR; also called T4M Ab
binds: [1] | [2]

B2: CS19ME3-23 (antibody, human IgG1, V domains shown)
VH: EVQLLESGGGLVQPGGSLRLSCAASGFTFSSYAMHWVRQAPGKGLEWVAVISYDGSNKYYADSVKGRFTISRDNSKNTLYLQMNSLRAEDTAVYYCATLEGGGRYYDFWSADYWGQGTLVTVSS
VL: QSALTQPRSVSGSPGQSVTISCTGTSSDVGGYNFVSWYQQHPGKAPKLLIYAVSKRPSGVPDRFSGSKSGNTASLTISGLQAEDEADYYCSSYSSESTRVVFGGGTKLTVL
notes: tested as human IgG1 (hIgG1); also called CS19ME3-23 Ab
binds: [3] | [4] | [5]

B3: CS19ME3-30-N (antibody, human IgG1, V domains shown)
VH: QVQLVESGGGVVQPGRSLRLSCAASGFTFSSYAMHWVRQAPGKGLEWVAVISYDGSNKYYADSVKGRFTISRDNSKNTLYLQMNSLRAEDTAVYYCATLEGGGRYYDFWSADYWGQGTLVTVSS
VL: QSALTQPRSVSGSPGQSVTISCTGTSSDVGGYNFVSWYQQHPGKAPKLLIYAVSNRPSGVPDRFSGSKSGNTASLTISGLQAEDEADYYCSSYSSESTRVVFGGGTKLTVL
notes: tested as human IgG1 (hIgG1); also called CS19ME3-30-N Ab
not listed: [1] | [2]
binds: all other assays above
